# According to the nanobody polyreactivity screen of Harvey et al. (2022):
# Test: yeast display, Sf9 membrane polyspecificity reagent, FACS + sequencing; frameworks hold sequencing errors
# Procedure, shortened: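 Galactose induction of a Saccharomyces cerevisiae BJ5465 synthetic nanobody display library ran 36–48 hours. The cells were then stained for 1 hour at 4 °C with 10% biotinylated, detergent-solubilized Sf9 membrane reagent, pulled down on streptavidin microbeads and FACS-sorted into low and high (top ~1%) gates on expression and reagent-binding fluorescence. Labels for polyreactivity follow the gate of origin.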
row,Sequence,polyreactivity (PSR sort gate)
1,QFQLVESGGGLVQAGGSLRLSCAASGLIFRRYAMGWYRQAPGKEREFVAAISWSGGSTYYADSVKGRFTISRDNAKNSVYLQINSLKPEDTGVSYFAAYDKSLYGSGYDYWGQGTQVTVSP,high polyreactivity
2,QVQLVESGGGLVQAGGSLRLSCAASGFTFRENAMGWYRQAPGKERELVAAISKRGGTTYYADSVKGRFTISRDNAKNTVYLQMNSLKPEDTAVYYCAAESYSGPYAYEYWGQGTQVTVSS,high polyreactivity
3,QVQLVESGGGLVQAGGSLRLRCADSGFTLDVYAMGWYRQAPGKERELVAATSRSAGSTYYADSVKGRFTSSRDNAKNTVYLQMNSLKPEETDVYYCGARYPPRFGVVRGYSYYHTSTYSWGQGTQVTVSS,high polyreactivity
4,QVQLVESGGGLVQAGGSLRLSCAASGIIFRGYPMGWYRQAPGKERELVARISITGGRTYYADSVKGRFTSSRDNAKNTVELQMNSLKPEDTAVYYCAAGKYVSTVRYDYWGQGTQVTVAS,high polyreactivity
5,QVQLVESGGGLVQAGGSLRLSCAASAGIFRYYAMGWYRQAPGKERELVAAITSSGTSTYYADSVKGRFTISRDNAKNTVYLQMNSLKPEDTAVYYCAATRTKRKFDYWGQGTQVTVSS,high polyreactivity
6,QVQLVESGGGLVQAGGSLRLSCAASGSTFVYYAMGLYRQAPGKERELVAAITASGGGTYYADSVKGRFTISRDNAKNPVYLQMNSLKPEVTAVYYCNRGYDYWGQGTQVTVSS,low polyreactivity
7,QVQLVESGGGLVQAGGSLRLSCAASGFTFSNNVMGWYRQAPGKERELVADITDSGGDTYYADSVKGRFTISRDNAKNTVYLQMNSLKPEDTAVYYCAARPQHFDLDLAYSGFDYWGQGTQVTVSS,high polyreactivity
8,QVQLVESGGGLVQAGGRLRLSCAASGSTFGYYAMGWNRQAPGKERELVAAISSRDGSTFYADSVKGRFTISRDNAKNTVFLQMNSLKPDDTAVYYCAKVFFHTPIVPEYDYCGQGTQVTVSS,low polyreactivity
9,QVQLVESGGGLVQAGGSLRLSCAASGGIFYFNAMGWYRQAPWKERELVAAIDQRGDTTYYADTVKGRFTISRDNAKNTVYLQMNSLKPEDTAVYYCAAEIYFLGDDYWGQGTQFTVSS,high polyreactivity
10,QVQLVDSGGGLVQAGGSLRLICAASGRSFYNYAMGRYSEAPGKERELVAAIAGSGGSTYYADSEKGRVTISRDNAKNTGYLQMNSLKPEDTAVDYCSTSGPQYYSRNFDDWGQGTQVTVSS,low polyreactivity
11,QVQLVESGGGLVQAGGSLRLSCAASGSIFLWYDMGWYRQAPGKEREFVASITRSGGSTYYADSVKGRFTISRDNAKNTVYLQMNSLKPEDTAVYYCAAGRRSSWRYYLWYDYWGQGTQVTVSS,low polyreactivity
12,QVQLVESGGGLVQAGGSLRLSCAASGLTFVVYAMGWYRPAPGKERELVAASDFSGGDTYYADSVKGRFTISRDNAKNTVYLQRNSLKPEDTADYYCAAEYYGPSYYIGFDYWGQGTQVTVSS,high polyreactivity
13,QVHLVESGGGLVQAGGSLRLSCAASGSIFSGYAMGWYRQAPGKEREFVAAISSSGGRTYYADSVKGRFTISRDNAKNTVYLQINSLKPEDTAVYYCNARRWPFNYDYWGQGTQVTVSS,high polyreactivity
14,QVQLVESGGGLVQAGGSLRLSCAASGRTFDRNAMGWYRQAPGQERELVAAITSRGGRTYYADSVKGRFTISRDNEKNTVYLQMNSLKPADTAVYYCAADLFSSRVRSNFDYWGQGTQVTVSS,high polyreactivity
15,QVQLVESGGGLVQAGGSLRLSCAASGIISIFNVMGWYRQAPGKERELVASITGRGGSTFYADSVKGRFTISRDNAKNTVYLQMNSLKPEDTAVYYCATDTGYTYPVTGLYDYWGQGTQVTVSS,low polyreactivity
16,QVQLEESGGGLVQAGGSLRLSCAASGRIFGGNAMGWYRQAPGKERELVAAINSSGGRTYYADSLKGRFTISRDNAKYTVYLQMNSLKTEDTAVYYCSARVVGNWYDYWGQGTQVTVSS,high polyreactivity

row,Sequence,polyreactivity (PSR sort gate)
1,QVQLVESGGGLVQAGGSLRLSCAASGRIFWVYAMGGYRQAPGKERELVAAINTSVGRTHYADSVKGRFTISRDNAKNTVYLQMNSLKPEDTAVYYCAADVKRYGWEYGYWGQGTQVTVSS,low polyreactivity
2,QVQLVESGGGLVQAGGSLRLSCAASGFTFVYYAMGWYRQAPGKERELVAAISRGGSTYYADSVKGRFTISRDNAQNPVYLQMNSLKPEDTAVYYCNAKKSGHYVSYPAYDYWGQGTQVTVSS,low polyreactivity
3,QVQLVESGGVLVQAGGSLRLSCAASGYIFQTYAMGWYRPAPGKEREFVAAISFIGSSTRYADSVKGRFTISRDNAKNTVYLQMNSLKPEDTAVYYCNNDTITSTWTPYTSWFGYWGQGTQVTVSS,high polyreactivity
4,QVQLVESGGGLVQAGGSLRLSCAASGFIIDEYAMGWYRQAPGKERELVAAISWSGSRTYYADSVKGRFTISRDNAKNTVYLQMNSLKPEDTAVYYCAKVTGVGAGRRIYWGQGTQVTVSS,low polyreactivity
5,QVQLVESGGGLVQAGGSLRLSCAASGRTFSGYAMGWYRQAPGKARELVAGITWNGGRTYYADSVKGRFTISRDNAKNTVYLQMNSLKPEDTAVYYCNKLGAVYPKYGYWGQGTQVTVSS,high polyreactivity
6,QVKLVESAGGLVQAGGSLRLSCSASAFIFGFNAMGWYRQEPGKERELVAAITWRGGRTSNADSVKGRFTISRDNAKNTVYLQMNSLKPEDTAVYYCAARRGTIVTRSRGYNYWGQGTQVTVSS,high polyreactivity
7,QVQLVESGGGLVQAGGSLRLSCAASGITFKGNAMGWYRQAPGKERELVAAIRWRAGRTYYADSVKGRFTISRDNAKNTVYLQMNSLKPEDTAVYYCAAVGRYAYRRGSFLAYKSNYDYWGQGTQVTVSS,high polyreactivity
8,QVQLVESVGGLVQAGGSLRLSCAASGFIFNWYAMGWYRQAPGKERELVAAITSGGSTNYADSVKGRFTISRDNAKNTVYLQMNSLKPEDTAVYYCAARDWRRYGYWGQGTQVTVSS,high polyreactivity
9,QVQLVESGGGLVQAGGSLRLSCAASGSIFWYYAMGWYRQAPGKERELVAAISGSGTRTYYADSVKGRFTISRDNAKNTVYLQMNSLKPEDTAVYYCAATAVRQSGRYLSSSGYDYWGQGTQVTVSS,high polyreactivity
10,QVQLVESGGGLVQAGGSLRLSCAASGSTFPVNAMGWYRQAPGKERELVARIRGSGGSTYYADSVKGRFTISRDNAKNTVYLQMKSLKPEDTAVYYCAARYIGYSSYKYDYWGQGTQVTVSS,high polyreactivity
11,QVQLVESGGGLVQAGGSLRLSCAASGFTFRVNAMGWYRQAPGKERELVAAISSGGSTNYADSVKGRFTISRDNAKYTVYLQMNSLKPEDTAVYYCAKRFKYIYYWGQGTQVTVSS,high polyreactivity
12,QVQLVESGGGLVQAGGSLRLSCAASGFTFYAYAMGWYGQAPGKERELVAAITGRGGSTYYADSVKGRFTISRDNAKNTVYLQMNSLKPEDTAVYYCNKVKKSDKFNNFSNDYWGQGTQVTVSS,high polyreactivity
13,QVQLVESGGGLVQAGCSLRLSCAASGATPQNAMGWYRQAPGKERELVAAISKRGGSTYYADSVKGRFTISRDNAKNTVYLQMISLKPEDTAVYYCAKSGRNYYDDDYWGQGTQVTVSS,high polyreactivity
14,QDQLVESGGGLVQAGGSLRLTCAASGSTFTTNVMGWYRQAPGKERDLVAAISWSSGSTYYADSVKGRFTISRDNAKNTVYLQMKSLKPEDTAVYYCAARLVIFYPYSRYYYWGQGTHVTVSS,high polyreactivity
15,QVQLVESGGGLVQAGGSLRLSCAASGRIFNDYTMGWYRPAPGKERELVAAITNRDTSTSYADSVKGRFTISRDNAKNTVYLQMNSLKPEDTAVYYCNAQQVIVVYRPGDYWGQGTQVTVSS,low polyreactivity
